Measurements: article PMC7736295 (Cell Discovery, 2020)
Substitutions are numbered along the chain they refer to. Numbers in names are those of the source.

T1: Mint1-CID (residues 338-397) I352A I355A I359A (UniProt O35430 338-397, I352A | I355A | I359A)
T1 sequence: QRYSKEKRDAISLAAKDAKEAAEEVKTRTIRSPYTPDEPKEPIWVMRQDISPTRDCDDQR

T2: CASK-CaMK (residues 1-337) (UniProt Q62915 1-337)
T2 construct: CaMK domain of CASK, residues 1-337; also called CASK(residues 1-337); source: E. coli BL21 (DE3), purified (Ni2+-Sepharose, size-exclusion chromatography); not shown: Trx, N-terminal, cleaved; His6, N-terminal, cleaved
T2 sequence (looked up): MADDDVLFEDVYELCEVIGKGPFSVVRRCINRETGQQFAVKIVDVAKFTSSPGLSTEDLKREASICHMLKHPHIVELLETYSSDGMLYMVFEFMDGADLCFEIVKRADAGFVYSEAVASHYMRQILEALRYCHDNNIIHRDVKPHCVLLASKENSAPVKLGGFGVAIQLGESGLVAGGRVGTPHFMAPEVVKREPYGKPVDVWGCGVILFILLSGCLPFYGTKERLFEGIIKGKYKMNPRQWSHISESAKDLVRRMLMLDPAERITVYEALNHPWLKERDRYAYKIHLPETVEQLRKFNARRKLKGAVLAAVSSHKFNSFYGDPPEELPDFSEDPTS

T3: CASK-CaMK (residues 1-301) (UniProt Q62915 1-301)
T3 chain: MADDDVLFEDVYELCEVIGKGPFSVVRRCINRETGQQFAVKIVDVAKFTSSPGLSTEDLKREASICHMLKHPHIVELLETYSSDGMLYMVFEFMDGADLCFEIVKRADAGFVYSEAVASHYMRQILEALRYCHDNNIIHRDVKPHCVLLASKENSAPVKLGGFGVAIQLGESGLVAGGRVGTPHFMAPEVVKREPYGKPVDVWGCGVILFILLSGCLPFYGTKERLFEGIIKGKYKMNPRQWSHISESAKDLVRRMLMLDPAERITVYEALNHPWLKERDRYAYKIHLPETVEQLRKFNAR

T4: CASK-CaMK (residues 1-319) (UniProt Q62915 1-319)
T4 chain: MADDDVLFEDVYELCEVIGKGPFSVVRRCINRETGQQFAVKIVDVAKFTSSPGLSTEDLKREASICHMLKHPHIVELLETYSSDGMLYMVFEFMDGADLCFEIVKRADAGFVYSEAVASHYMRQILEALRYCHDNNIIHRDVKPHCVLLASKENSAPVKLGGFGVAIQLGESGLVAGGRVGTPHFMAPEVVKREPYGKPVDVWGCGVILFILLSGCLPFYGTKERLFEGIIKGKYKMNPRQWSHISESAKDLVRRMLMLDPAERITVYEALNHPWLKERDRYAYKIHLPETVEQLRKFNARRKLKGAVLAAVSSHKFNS

B1: CASK-CaMK (residues 1-337) (domain or fragment)
chain: T2 sequence (looked up)
B2: Mint1-CID (residues 338-397) (domain or fragment, UniProt O35430 338-397, looked up)
chain: T1 sequence with A15I, A18I, A22I
notes: also called the entire CID; the whole CID; source: E. coli BL21 (DE3), purified (Ni2+-Sepharose, size-exclusion chromatography); not shown: Trx, N-terminal, cleaved; His6, N-terminal, cleaved
B3: Mint1-CID (residues 338-397) I352A I355A I359A (domain or fragment, UniProt O35430 338-397, looked up)
chain: T1 sequence
notes: Mint1-CID residues 338-397 with I352A, I355A and I359A; Probably made as the wild-type fragment (E. coli, Trx-His6 tag removed); also called the mutations in the N-CID; source: recombinant protein
B4: Mint1-CID (residues 338-397) W381A (domain or fragment, UniProt O35430 338-397, looked up)
chain: T1 sequence with A15I, A18I, A22I, W44A
notes: Mint1-CID residues 338-397 with W381A; Probably made as the wild-type fragment (E. coli, Trx-His6 tag removed); also called the C-CID W381A mutation; source: recombinant protein
B5: Mint1-C-CID (residues 371-397) (domain or fragment, UniProt O35430 371-397, looked up)
chain: YTPDEPKEPIWVMRQDISPTRDCDDQR
notes: C-terminal half of the CID of Mint1, residues 371-397; source: E. coli BL21 (DE3), purified (Ni2+-Sepharose, size-exclusion chromatography); not shown: Trx, N-terminal, cleaved; His6, N-terminal, cleaved

Experiments:
[1] = target: T1, Mint1-CID (residues 338-397) I352A …; test: ITC
[2] = target: T2, CASK-CaMK (residues 1-337); test: ITC; MicroCalorimeter ITC200, 25 °C; Mint1 fragments and mutants injected into CASK-CaMK in the cell; repeated three times; conditions: both partners purified
[3] = target: T3, CASK-CaMK (residues 1-301); test: ITC
[4] = target: B1; test: ITC
[5] = target: T4, CASK-CaMK (residues 1-319); test: ITC

Binder: B1
- Kd [1]: 270 nM

Binder: B2
- Kd [2]: ~20 nM
- Kd [3]: 42 nM
- Kd [4]: 17 nM
- Kd [5]: 30 nM

Binder: B3
- fold reduction of the binding affinity against the wild-type CID [2]: ~15 fold

Binder: B4
- Kd [2]: ~55000 nM

Binder: B5
- Kd [2]: ~500 nM
